B1: Coiled-coil domain-containing protein 6 (Homo sapiens), Q16204 (parent)
chain: MADSASESDTDGAGGNSSSSAAMQSSCSSTSGGGGGGGGGGGGGKSGGIVISPFRLEELTNRLASLQQENKVLKIELETYKLKCKALQEENRDLRKASVTIQARAEQEEEFISNTLFKKIQALQKEKETLAVNYEKEEEFLTNELSRKLMQLQHEKAELEQHLEQEQEFQVNKLMKKIKKLENDTISKQLTLEQLRREKIDLENTLEQEQEALVNRLWKRMDKLEAEKRILQEKLDQPVSAPPSPRDISMEIDSPENMMRHIRFLKNEVERLKKQLRAAQLQHSEKMAQYLEEERHMREENLRLQRKLQREMERREALCRQLSESESSLEMDDERYFNEMSAQGLRPRTVSSPIPYTPSPSSSRPISPGLSYASHTVGFTPPTSLTRAGMSYYNSPGLHVQHMGTSHGITRPSPRRSNSPDKFKRPTPPPSPNTQTPVQPPPPPPPPPMQPTVPSAATSQPTPSQHSAHPSSQP

Columns and labels:
Settings in all cases: with fbxw7_human FBXW7, Q969H0
fbxw7_human FBXW7, Q969H0, sequence (Q969H0 whole entry): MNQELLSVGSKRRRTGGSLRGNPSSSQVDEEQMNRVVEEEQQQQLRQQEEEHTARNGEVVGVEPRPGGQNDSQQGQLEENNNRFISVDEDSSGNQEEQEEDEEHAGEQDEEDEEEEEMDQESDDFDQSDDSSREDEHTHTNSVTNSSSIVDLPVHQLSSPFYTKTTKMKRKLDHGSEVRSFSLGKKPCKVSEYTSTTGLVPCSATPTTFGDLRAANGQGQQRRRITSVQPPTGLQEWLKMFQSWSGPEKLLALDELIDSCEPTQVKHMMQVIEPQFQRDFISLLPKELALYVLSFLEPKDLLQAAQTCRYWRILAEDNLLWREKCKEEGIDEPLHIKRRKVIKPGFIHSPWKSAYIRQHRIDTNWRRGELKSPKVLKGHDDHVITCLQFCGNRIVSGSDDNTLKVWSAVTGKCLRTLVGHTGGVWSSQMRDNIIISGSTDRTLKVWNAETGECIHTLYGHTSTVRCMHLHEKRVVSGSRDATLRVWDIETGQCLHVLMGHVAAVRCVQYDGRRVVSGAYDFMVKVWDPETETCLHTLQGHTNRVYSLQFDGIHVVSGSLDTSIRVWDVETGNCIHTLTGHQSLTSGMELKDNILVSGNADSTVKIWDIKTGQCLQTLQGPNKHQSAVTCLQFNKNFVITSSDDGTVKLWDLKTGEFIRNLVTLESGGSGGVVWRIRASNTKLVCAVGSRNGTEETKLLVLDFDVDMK

[1] = variants of: B1
[2] = variants of: B1; remark: listed apart in the source
[3] = variants of: B1; remark: listed apart in the source
[4] = variants of: B1; remark: listed apart in the source
[5] = variants of: B1; remark: listed apart in the source

Row | effect of a mutation on the interaction [1] | effect of a mutation on the interaction [2] | effect of a mutation on the interaction [3] | effect of a mutation on the interaction [4] | effect of a mutation on the interaction [5] | Variant
1 | disrupting interaction | – | – | – | – | T434A
2 | – | disrupting interaction | decreasing interaction | – | – | T427A

The next lines start with the variant.

Row | Variant | effect of a mutation on the interaction [1] | effect of a mutation on the interaction [2] | effect of a mutation on the interaction [3] | effect of a mutation on the interaction [4] | effect of a mutation on the interaction [5]
3 | S359A | – | disrupting interaction | – | decreasing interaction | –
4 | S413A | – | disrupting interaction | – | – | decreasing interaction

From IntAct's records for PubMed 23108047
